The chains are these.
B1: CLK3 (parent)
chain: FGEDYYGPSRSRHRRRSRERGPYR
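Also: lentivirally expressed fusions sorted by FACS into six bins by GFP to DsRed ratio, PSI derived from sequencing read proportions per bin multiplied by bin number.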

In this data set the parent is B1. As to the kind of experiment: protein stability index of a GFP-peptide fusion (GPS, HEK-293T) (PSI 1-6); higher = more stable. As to conditions: c terminus: a fixed tail appended.
For FGEDYYGPSRSRHRRRSRERNPYR, the protein stability index stood at 2.33.
The same measure for FGEDYYGPSRSRHRRRSRERWPYR: 4.06; for FGEDYYGPSRSRHRRRSRERRPYR: 3.2.
The same measure for FGEDYYGPSRSRHRRRSRERHPYR: 3.13; for FGEDYYGPSRSRHRRRSRERSPYR: 1.41; for FGEDYYGPSRSRHRRRSRERIPYR: 2.93.
The same measure for FGEDYYGPSRSRHRRRSRERMPYR: 3.38; for FGEDYYGPSRIRHRRRSRERGPYR: 2.56; for FGEDYYGPSRCRHRRRSRERGPYR: 2.95.
For the variant FGEDYYGPSRHRHRRRSRERGPYR, the protein stability index worked out at 3.12.
The same measure for FGEDYYGPSRGRHRRRSRERGPYR: 2.58; for FGEDYYGPSRSRHRRRSREAGPYR: 2.47; for FGEDYYGPSRSRHRRRSREYGPYR: 2.3.
The result for FGEDYYGPSRSRHRRRSRESGPYR reads 2.24; that for FGEDMYGPSRSRHRRRSRERGPYR, 3.5; that for FGEDTYGPSRSRHRRRSRERGPYR, 5.24.
The same measure for FGEDSYGPSRSRHRRRSRERGPYR: 3.8.
For FGGDYYGPSRSRHRRRSRERGPYR, the protein stability index was found to be 2.27.
The result for FGTDYYGPSRSRHRRRSRERGPYR reads 3.75; that for FGHDYYGPSRSRHRRRSRERGPYR, 4.21; that for FGADYYGPSRSRHRRRSRERGPYR, 3.9.
The same measure for FGLDYYGPSRSRHRRRSRERGPYR: 4.43; for FKEDYYGPSRSRHRRRSRERGPYR: 4.75.
The same measure for FAEDYYGPSRSRHRRRSRERGPYR: 2.87; for FEEDYYGPSRSRHRRRSRERGPYR: 4.89.
In the case of FGEDYYDPSRSRHRRRSRERGPYR, the protein stability index came out at 3.27.
With FGEDYYHPSRSRHRRRSRERGPYR, the protein stability index stood at 2.07.
The result for QGEDYYGPSRSRHRRRSRERGPYR reads 5.13.
The result for DGEDYYGPSRSRHRRRSRERGPYR reads 5.21; that for PGEDYYGPSRSRHRRRSRERGPYR, 4.87; that for WGEDYYGPSRSRHRRRSRERGPYR, 4.57.
The result for RGEDYYGPSRSRHRRRSRERGPYR reads 5.35; that for FGEDYYGPSRSIHRRRSRERGPYR, 1.95; that for FGEDYYGPSRSKHRRRSRERGPYR, 3.19.
For the variant FGEDYYGPSRSSHRRRSRERGPYR, the protein stability index stood at 2.1.
The result for FGEDYYGPSRSFHRRRSRERGPYR reads 2.18.
The same measure for FGEDYYGPSRSRHRVRSRERGPYR: 2.1.
The same measure for FGEDYYGPSRSRHRMRSRERGPYR: 3.55; for FGEDYYGPSRSRHRHRSRERGPYR: 2.18; for FGEDYMGPSRSRHRRRSRERGPYR: 4.17.
For the variant FGEDYSGPSRSRHRRRSRERGPYR, the protein stability index worked out at 4.96.
The result for FGEDYEGPSRSRHRRRSRERGPYR reads 4.84; that for FGEDYPGPSRSRHRRRSRERGPYR, 4.78; that for FGEDYGGPSRSRHRRRSRERGPYR, 5.15.
The result for FGEDYLGPSRSRHRRRSRERGPYR reads 3.98; that for FGEDYYGPSRSRHRRCSRERGPYR, 1.97; that for FGEDYYGPSRSRHRRESRERGPYR, 2.86.
The same measure for FGEDYYGPSRSRHRRWSRERGPYR: 2.33; for FGEDYYGPSRSRHRRKSRERGPYR: 2.46.
Take FGEDYYGPSRSRHRRTSRERGPYR: the protein stability index was determined as 2.2.
The same measure for FGEDYYGPSRSRHRRASRERGPYR: 1.87; for FGEDYYGPSRSRHRRGSRERGPYR: 2.52.
The result for FGEDYYGPSRSRHRRRSRERGPYA reads 2.02.
The same measure for FGEDYYGPSRSRHRRRSRERGPYK: 2.62; for FGEDYYGPSRSRHRRRSRERGPYV: 2.46.
On to FGEDYYGPSRSRHRRRSRERGPYY, for which the protein stability index worked out at 2.35.
The same measure for FGEDYYGPSRSRHRRRSRERGIYR: 2.2; for FGEDYYGPSRSRHRRRSRERGWYR: 3.26; for FGEDYYGPSRSRHRRRSFERGPYR: 2.73.
The result for FGEDYYGPSRSRHRRRSLERGPYR reads 2.22; that for FGEDYYGPSRSRHRRRSGERGPYR, 2.54.
FGEDYYGPSRSRHRRRSNERGPYR: the protein stability index is 1.96.
The same measure for FGEDYYGPSRSRHRRRNRERGPYR: 3.93; for FGEDYYGPSRSRHRRRKRERGPYR: 2.81.
The same measure for FGEDYYGPSRSRHRRRRRERGPYR: 4.26.
For the variant FGEDYYGPTRSRHRRRSRERGPYR, the protein stability index worked out at 2.58.
The same measure for FGEDYYGPNRSRHRRRSRERGPYR: 2.82.
FGEDYYGPLRSRHRRRSRERGPYR: the protein stability index stood at 2.55.
The result for FGEDYYGPGRSRHRRRSRERGPYR reads 3.16; that for FGEPYYGPSRSRHRRRSRERGPYR, 3.59; that for FGEDYYGISRSRHRRRSRERGPYR, 2.19.
The same measure for FGEDYYGCSRSRHRRRSRERGPYR: 2.48; for FGEDYYGASRSRHRRRSRERGPYR: 1.71; for FGEDYYGPSRSRHRRRSRYRGPYR: 3.94.
FGEDYYGPSRSRHRRRSRLRGPYR: the protein stability index was 3.42.
In the case of FGEDYYGPSRSRHRRRSRGRGPYR, the protein stability index came out at 4.06.
The result for FGEDYYGPSRSRHRRRSRDRGPYR reads 3.87; that for FGEDYYGPSRSRHRRRSRERGPWR, 2.46.
The same measure for FGEDYYGPSRSRHRRRSRERGPMR: 2.48.
The same measure for FGEDYYGPSRSRHRRRSRERGPHR: 2.38; for FGEDYYGPSRSRHRRRSRERGPDR: 2.89; for FGEDYYGPSHSRHRRRSRERGPYR: 3.62.
Regarding FGEDYYGPSISRHRRRSRERGPYR, the protein stability index was 2.64.
The same measure for FGEDYYGPSSSRHRRRSRERGPYR: 3; for FGEDYYGPSFSRHRRRSRERGPYR: 2.31.
Turning to FGEDYYGPSLSRHRRRSRERGPYR, the protein stability index is 3.03.
In the case of FGEDYYGPSRSRHNRRSRERGPYR, the protein stability index came to 2.89.
FGEDYYGPSRSRHERRSRERGPYR: the protein stability index stood at 2.66.
The result for FGEDYYGPSRSRHPRRSRERGPYR reads 2.08.
The same measure for FGEDYYGPSRSRHLRRSRERGPYR: 2.27.
The same measure for FGEDYYGPSRSRHARRSRERGPYR: 1.88; for FGEDYYGPSRSRIRRRSRERGPYR: 2.78.
For FGEDYYGPSRSRDRRRSRERGPYR, the protein stability index turned out to be 2.16.
Take FGEDYYGPSRSRSRRRSRERGPYR: the protein stability index was 2.52.

(Values after the supplement of paper PMC10567573.)
